Assay in all cases: SPR; bivalent fitting model
For assay [1], the target named is HAdV-D26 capsid (human adenovirus type 26, species D, replication-defective vector particle) (human adenovirus type 26 (species D)).
In assay [2] the target is HAdV-B35 capsid (human adenovirus type 35, species B, replication-defective vector particle) (human adenovirus type 35 (species B)).
Assay [3] deals with HAdV-C5 capsid (human adenovirus type 5, species C, replication-defective vector particle) (human adenovirus type 5 (species C), UniProt P04133 1-952).
HAdV-C5 capsid (human adenovirus type 5, species C, replication-defective vector particle), sequence (P04133 whole entry, looked up): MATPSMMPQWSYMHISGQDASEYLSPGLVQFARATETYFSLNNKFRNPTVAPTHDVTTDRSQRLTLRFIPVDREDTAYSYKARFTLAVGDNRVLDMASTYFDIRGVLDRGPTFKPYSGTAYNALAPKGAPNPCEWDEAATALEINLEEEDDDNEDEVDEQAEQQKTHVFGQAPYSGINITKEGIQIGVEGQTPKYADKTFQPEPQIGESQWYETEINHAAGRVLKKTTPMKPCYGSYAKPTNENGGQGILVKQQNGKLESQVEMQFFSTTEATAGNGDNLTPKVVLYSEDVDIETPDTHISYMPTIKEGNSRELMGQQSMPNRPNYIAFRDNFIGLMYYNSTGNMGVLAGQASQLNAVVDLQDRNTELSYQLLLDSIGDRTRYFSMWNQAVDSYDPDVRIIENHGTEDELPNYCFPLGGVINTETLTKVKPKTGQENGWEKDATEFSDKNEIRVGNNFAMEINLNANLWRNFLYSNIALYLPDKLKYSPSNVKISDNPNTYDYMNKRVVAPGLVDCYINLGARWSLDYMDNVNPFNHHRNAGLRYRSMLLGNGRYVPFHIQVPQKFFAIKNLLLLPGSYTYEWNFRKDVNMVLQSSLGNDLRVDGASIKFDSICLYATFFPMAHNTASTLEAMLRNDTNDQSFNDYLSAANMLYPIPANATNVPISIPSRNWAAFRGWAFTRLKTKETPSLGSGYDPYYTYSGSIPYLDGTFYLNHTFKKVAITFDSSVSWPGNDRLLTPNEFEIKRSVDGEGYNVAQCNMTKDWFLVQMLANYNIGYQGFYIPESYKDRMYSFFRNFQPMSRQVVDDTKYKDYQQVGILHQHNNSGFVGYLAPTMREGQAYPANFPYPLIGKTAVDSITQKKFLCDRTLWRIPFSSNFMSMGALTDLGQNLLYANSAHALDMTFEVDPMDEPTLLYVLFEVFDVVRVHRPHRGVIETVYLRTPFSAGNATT

B1: human lactoferrin (natural protein)
chain: GRRRSVQWCAVSQPEATKCFQWQRNMRKVRGPPVSCIKRDSPIQCIQAIAENRADAVTLDGGFIYEAGLAPYKLRPVAAEVYGTERQPRTHYYAVAVVKKGGSFQLNELQGLKSCHTGLRRTAGWNVPIGTLRPFLNWTGPPEPIEAAVARFFSASCVPGADKGQFPNLCRLCAGTGENKCAFSSQEPYFSYSGAFKCLRDGAGDVAFIRESTVFEDLSDEAERDEYELLCPDNTRKPVDKFKDCHLARVPSHAVVARSVNGKEDAIWNLLRQAQEKFGKDKSPKFQLFGSPSGQKDLLFKDSAIGFSRVPPRIDSGLYLGSGYFTAIQNLRKSEEEVAARRARVVWCAVGEQELRKCNQWSGLSEGSVTCSSASTTEDCIALVLKGEADAMSLDGGYVYTAGKCGLVPVLAENYKSQQSSDPDPNCVDRPVEGYLAVAVVRRSDTSLTWNSVKGKKSCHTAVDRTAGWNIPMGLLFNQTGSCKFDEYFSQSCAPGSDPRSNLCALCIGDEQGENKCVPNSNERYYGYTGAFRCLAENAGDVAFVKDVTVLQNTDGNNNEAWAKDLKLADFALLCLDGKRKPVTEARSCHLAMAPNHAVVSRMDKVERLKQVLLHQQAKFGRNGSDCPDKFCLFQSETKNLLFNDNTECLARLHGKTTYEKYLGPQYVAGITNLKKCSTSPLLEACEFLRK
Regarding B1, the Kd in assay [1] was found to be 2550 nM; in assay [2], 54000 nM; in assay [3], 800 nM.

Values taken from doi:10.1101/2020.06.03.131664 (2020).
